Test results: PMC9537594 (2022)

B1: GST-NUP153_(1306-1450)(LCR-FG-LCR) (domain or fragment)
chain: FGTGPSAPSASPAFGANQTPTFGQSQGASQPNPPGFGSISSSTALFPTGSQPAPPTFGTVSSSSQPPVFGQQPSQSAFGSGTTPNSSSAFQFGSSTTNFNFTNNSPSGVFTFGANSSTPAASAQPSGSGGFPFNQSPAAFTVGSN
B2: GST-SEC24C_(196-314)(LCR-FG-LCR) (domain or fragment)
chain: HPGIQTPQRSAPSQASSFTPPASGGPRLPSMTGPLLPGQSFGGPSVSQPNHVSSPPQALPPGTQMTGPLGPLPPMHSPQQPGYQPQQNGSFGPARGPQSNYGGPYPAAPTFGSQPGPPQ
B3: GST-CPSF6_(261-358)(LCR-FG-LCR) (domain or fragment)
chain: SDIIPTTENLYFQGAIAEIPIFGLKAGQTPPRPPLGPPGPPGPPGPPPPGQVLPPPLAGPPNRGDRPPPPVLFPGQPFGQPPLGPLPPGPPPPVPGYGPPPGPPPPQQGPPPPPG

target: Native HIV-1 cores (mature CA lattice of hexamers and pentamers) (HIV-1)

Which Kd does the source give for B1 here?
Its Kd is 310 nM.

For B2, which Kd is on record?
The Kd was 810 nM.

B3 was tested. Which Kd did it give?
Its Kd is 890 nM.
